We go through 1 substance from paper doi:10.1101/2022.02.27.481963.

For orientation: stoichiometry N means a count of units in the complex or per binding partner.

This test addresses Fused MjGMPS (MjATPPase subunit fused to the C-terminus of MjGATase, no intervening linker) (Methanocaldococcus jannaschii). The experiment in a line: SEC. A general note: Size exclusion chromatography separates by hydrodynamic size, large species first.

As to “Fused MjGMPS (MjATPPase subunit fused to the C-terminus of MjGATase, no intervening linker) (enzyme)”, the stoichiometry N turned out to be 2.
